Results published in PMC6073210, “Adducin‐1 is essential for spindle pole integrity through its interaction with TPX2” (EMBO Reports, 2018).
Where a chain is given by its changes, count along the chain named.

Legend:
TPX2 = TPX2 (UniProt Q9ULW0); experiment: anti-FLAG resin co-IP, TPX2 blot; conditions: reference: FLAG-ADD1 wild type, M phase; sites S726
[1] = target: T1, FLAG-ADD1 WT (adducin-1), transiently expressed in HEK293 cells (UniProt P35611 1-737); experiment: pull-down; GST-TPX2 fusion proteins immobilised on glutathione agarose beads, incubated with 25 μg of lysates from HEK293 cells expressing FLAG-tagged ADD1 forms at 4°C for 60 min; washed with TBS buffer; blot with anti-FLAG; conditions: one partner purified
T1 construct: adducin-1 (ADD1); pCMV-3Tag-3A probably adds a C-terminal 3x FLAG; also called FLAG-tagged ADD1; 293/FLAG-ADD1; source: HEK293, transiently transfected, in lysate
T1 sequence (looked up): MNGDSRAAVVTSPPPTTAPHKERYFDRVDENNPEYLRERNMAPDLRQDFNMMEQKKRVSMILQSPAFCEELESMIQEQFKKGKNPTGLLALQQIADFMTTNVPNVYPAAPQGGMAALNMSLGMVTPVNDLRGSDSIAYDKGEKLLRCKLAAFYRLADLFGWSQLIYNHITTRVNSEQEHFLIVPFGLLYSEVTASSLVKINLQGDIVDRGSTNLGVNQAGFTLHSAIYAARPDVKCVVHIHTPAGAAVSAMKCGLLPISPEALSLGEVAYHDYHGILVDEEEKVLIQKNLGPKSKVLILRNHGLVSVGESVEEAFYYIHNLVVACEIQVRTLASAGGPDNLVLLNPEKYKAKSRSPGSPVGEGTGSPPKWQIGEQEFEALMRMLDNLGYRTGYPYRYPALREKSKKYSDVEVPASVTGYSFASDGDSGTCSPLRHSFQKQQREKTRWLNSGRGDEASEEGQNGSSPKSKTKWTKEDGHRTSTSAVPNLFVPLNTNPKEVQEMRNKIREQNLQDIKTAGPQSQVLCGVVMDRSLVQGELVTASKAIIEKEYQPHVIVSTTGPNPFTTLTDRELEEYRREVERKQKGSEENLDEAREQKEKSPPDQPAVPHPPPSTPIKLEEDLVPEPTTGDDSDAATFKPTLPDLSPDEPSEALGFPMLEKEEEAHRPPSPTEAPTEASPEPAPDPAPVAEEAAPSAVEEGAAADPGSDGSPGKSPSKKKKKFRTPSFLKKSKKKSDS

[2] = target: T2, FLAG-ADD1 S726A mutant, expressed in HeLa cells (UniProt P35611 1-737, S726A); experiment: co-IP; HeLa cells expressing FLAG-ADD1 WT or S726A, synchronized at the M phase (nocodazole); lysates in TBS buffer (1% Triton X-100, 50 mM Tris-HCl pH 7.4, 150 mM NaCl) incubated with anti-FLAG M2 affinity resins for 16 h, eluted with FLAG peptide, blotted with anti-FLAG and anti-TPX2; conditions: partners not purified
T2 construct: adducin-1 (ADD1) with S726A; source: HeLa cells expressing FLAG-ADD1 S726A (lentiviral vector pLAS3w.Pneo), in whole-cell lysate
T2 sequence (looked up): T1 sequence (looked up) with S726A

For “adducin-1 (ADD1) (from UniProt P35611) FLAG-ADD1 S726A, M phase”, which “TPX2 co-IP binding relative to wild type” value (TPX2) is on record?
Its value is “weaker”.

B1: GST-TPX2 aa 120–370 fusion protein (domain or fragment, human, UniProt Q9ULW0 120-370, looked up)
chain: RSLRLSAQKDLEQKEKHHVKMKAKRCATPVIIDEILPSKKMKVSNNKKKPEEEGSAHQDTAEKNASSPEKAKGRHTVPCMPPAKQKFLKSTEEQELEKSMKMQQEVVEMRKKNEEFKKLALAGIGQPVKKSVSQVTKSVDFHFRTDERIKQHPKNQEEYKEVNFTSELRKHPSSPARVTKGCTIVKPFNLSQGKKRTFDETVSTYVPLAQQVEDFHKRTPNRYHLRSKKDDINLLPSKSSVTKICRDPQTP
notes: TPX2, Homo sapiens, aa 120–370 of the full-length cDNA (aa 1–747), subcloned into pGEX-2T; pGEX-2T probably places GST at the N-terminus; also called TPX2 aa 120–370 fragment; GST-tagged TPX2 aa 120–370; source: E. coli BL21, purified on glutathione agarose beads
Does B1 bind [1]?
Result: binds

B2: TPX2, endogenous in HeLa cells (natural protein, human (endogenous in HeLa), UniProt Q9ULW0 1-747, looked up)
chain: MSQVKSSYSYDAPSDFINFSSLDDEGDTQNIDSWFEEKANLENKLLGKNGTGGLFQGKTPLRKANLQQAIVTPLKPVDNTYYKEAEKENLVEQSIPSNACSSLEVEAAISRKTPAQPQRRSLRLSAQKDLEQKEKHHVKMKAKRCATPVIIDEILPSKKMKVSNNKKKPEEEGSAHQDTAEKNASSPEKAKGRHTVPCMPPAKQKFLKSTEEQELEKSMKMQQEVVEMRKKNEEFKKLALAGIGQPVKKSVSQVTKSVDFHFRTDERIKQHPKNQEEYKEVNFTSELRKHPSSPARVTKGCTIVKPFNLSQGKKRTFDETVSTYVPLAQQVEDFHKRTPNRYHLRSKKDDINLLPSKSSVTKICRDPQTPVLQTKHRARAVTCKSTAELEAEELEKLQQYKFKARELDPRILEGGPILPKKPPVKPPTEPIGFDLEIEKRIQERESKKKTEDEHFEFHSRPCPTKILEDVVGVPEKKVLPITVPKSPAFALKNRIRMPTKEDEEEDEPVVIKAQPVPHYGVPFKPQIPEARTVEICPFSFDSRDKERQLQKEKKIKELQKGEVPKFKALPLPHFDTINLPEKKVKNVTQIEPFCLETDRRGALKAQTWKHQLEEELRQQKEAACFKARPNTVISQEPFVPKKEKKSVAEGLSGSLVQEPFQLATEKRAKERQELEKRMAEVEAQKAQQLEEARLQEEEQKKEELARLRRELVHKANPIRKYQGLEIKSSDQPLTVPVSPKFSTRFHC
notes: TPX2, endogenous protein of HeLa cells detected with anti-TPX2; source: endogenous, HeLa whole-cell lysate
B2 was tested. Which “percent decrease of the interaction relative to FLAG-ADD1 WT” value [2] did it give?
Its value is roughly 50%.
